For test [1], the target named is CXCL12. Nature of the test: Bio-Layer Interferometry, CXCL12 immobilized on the AR2G biosensor, CXCL12 trap at 500, 250 and 125 nM.
Test [2] has as its target CXCL12. Nature of the test: Bio-Layer Interferometry (BLI).
Test [3] deals with CXCL12. As to the kind of experiment: Bio-Layer Interferometry; CXCL12 immobilized on AR2G biosensor, different concentrations of CXCL12 trap.
Test [4] addresses CXCL12. Nature of the test: cell-based or functional assay.

B1: CXCL12 trap (engineered VH-linker-VL fusion protein, expressed in and purified from 293T cells) (scFv, V domains shown, not shown: small tags and cut ends)
VH: EVQLVESGGGLVQPGGSLRLSCAASGFSLTVYSVHWVRQAPGKGLEWVGALWGSGGTEYNSNLKSRFTISRDTSKNTVYLQMNSLRAEDTAVYYCARDQGLNYGSLFDYWGQGTLVTVSS
VL: DIQMTQSPSSLSASVGDRVTITCRASESISYSLSWYQQKPGKAPKLLIYNAVKLESGVPSRFSGSGSGTDFTLTISSLQPEDFATYYCKQYWNTPFTFGQGTKVEIKR
modifications: flexible linker; C-terminal E tag, His6 tag
In the test with CXCL12 [1], B1 registered a dissociation constant (Kd) of 4.1 nM, a koff of 3.64e-05 s⁻¹ and an on-rate constant (kon) of 8850 M⁻¹ s⁻¹. Moreover, in the test with CXCL12 [2], the dissociation constant (Kd) came to 4 nM. In addition, in the test with CXCL12 [3], the dissociation constant (Kd) is 4 nM. In the test with CXCL12 [4], this molecule registered an invasion of CT-26 FL3 cells stimulated with CXCL12 (100.0 ng/ml) of 12 µg/mL, a migration of CT-26 FL3 cells stimulated with CXCL12 (100.0 ng/ml) of 8 µg/mL, an one-half maximal inhibition [ND50] against biological active CXCL12 (100 ng/ml) in vitro of 120 nM and an one-half maximal inhibition [ND50] of CT-26 FL3 cell migration stimulated with CXCL12 (100 ng/ml) of 120 nM.
